From publication PMC8509413

Experiments:
[1] = molecular target: eLH/CGR-D578Y (equine)
[2] = molecular target: eLH/CGR-M398T (equine)
[3] = molecular target: eLH/CGR-L457R (equine)
[4] = molecular target: eLH/CGR-D564G (equine)
[5] = molecular target: wild-type equine lutropin/choriogonadotropin receptor (eLH/CGR) (equine)
[6] = molecular target: eLH/CGR-D405N (equine)
[7] = molecular target: eLH/CGR-Y546F (equine)
[8] = molecular target: wild-type equine lutropin/choriogonadotropin receptor (eLH/CGR) (equine); remark: listed apart in the source
[9] = molecular target: eLH/CGR-R464H (equine)

With “recombinant equine chorionic gonadotropin (rec-eCGβ/α) (from UniProt P08751 21-169; P01220 25-120) (ligand)” the EC50 of rec-eCG-stimulated cAMP accumulation (HTRF) in transiently transfected CHO-K1 cells, 30 min [1] was 0.0479 µg/mL, the EC50 of rec-eCG-stimulated cAMP accumulation (HTRF) in transiently transfected CHO-K1 cells, 30 min [2] was 0.0198 µg/mL and the EC50 of rec-eCG-stimulated cAMP accumulation (HTRF) in transiently transfected CHO-K1 cells, 30 min [3] was 0.0244 µg/mL. The EC50 of rec-eCG-stimulated cAMP accumulation (HTRF) in transiently transfected CHO-K1 cells, 30 min [4] was 0.0583 µg/mL, the EC50 of rec-eCG-stimulated cAMP accumulation (HTRF) in transiently transfected CHO-K1 cells, 30 min (experiment of Table 1) [5] was 0.0442 µg/mL and the EC50 of rec-eCG-stimulated cAMP accumulation (HTRF) in transiently transfected CHO-K1 cells, 30 min [6] was 0.135 µg/mL. It also gave an EC50 of rec-eCG-stimulated cAMP accumulation (HTRF) in transiently transfected CHO-K1 cells, 30 min [7] of 0.0959 µg/mL, an EC50 of rec-eCG-stimulated cAMP accumulation (HTRF) in transiently transfected CHO-K1 cells, 30 min (separate experiment of Table 2) [8] of 0.0303 µg/mL and an EC50 of rec-eCG-stimulated cAMP accumulation (HTRF) in transiently transfected CHO-K1 cells, 30 min [9] of 0.914 µg/mL.
